In article PMC3547832, “Secondary Metabolism and Development Is Mediated by LlmF Control of VeA Subcellular Localization in Aspergillus nidulans” (PLoS Genetics, 2013):

T1: His6-VeA-S-tag (recombinant) (Aspergillus nidulans, UniProt C8VTV4 1-573)
T1 construct: VeA, Aspergillus nidulans; E. coli codon-optimized version obtained from Reinhard Fischer, EcoRI-XhoI fragment in pRSF-1b; source: E. coli BL21 (λDE3), purified (Ni-NTA); not shown: His6, N-terminal, kept; S-tag, C-terminal, kept
T1 sequence (looked up): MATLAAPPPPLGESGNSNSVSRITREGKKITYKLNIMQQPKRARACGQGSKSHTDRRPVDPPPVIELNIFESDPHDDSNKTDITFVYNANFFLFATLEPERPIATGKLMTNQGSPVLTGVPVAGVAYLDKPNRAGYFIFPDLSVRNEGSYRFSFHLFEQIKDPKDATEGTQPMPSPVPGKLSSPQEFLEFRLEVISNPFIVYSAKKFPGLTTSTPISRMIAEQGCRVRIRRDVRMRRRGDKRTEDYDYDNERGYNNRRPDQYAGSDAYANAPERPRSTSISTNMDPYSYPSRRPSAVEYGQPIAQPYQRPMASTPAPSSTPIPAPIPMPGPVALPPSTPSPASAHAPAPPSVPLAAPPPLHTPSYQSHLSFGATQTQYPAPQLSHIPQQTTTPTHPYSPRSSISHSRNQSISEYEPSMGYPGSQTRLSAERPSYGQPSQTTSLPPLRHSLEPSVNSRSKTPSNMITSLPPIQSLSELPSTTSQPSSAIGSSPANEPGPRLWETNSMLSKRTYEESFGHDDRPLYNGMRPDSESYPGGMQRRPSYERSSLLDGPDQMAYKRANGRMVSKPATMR

B1: GST-VelB (recombinant) (natural protein, Aspergillus nidulans, UniProt C8VTS4 1-369, looked up)
chain: MYAVEDRAHSGHHPPPLSMDRIPPPSTMYPSSAGPSAMVSPAGQPEPESLSTVHDGRIWSLQVVQQPIRARMCGFGDKDRRPITPPPCIRLIVKDAQTQKEVDINSLDSSFYVVMADLWNADGTHEVNLVKHSATSPSISTAMSSSYPPPPHPTSSDYPASYQTNPYGQPVGQPVGQPVGYAGVGNYYGGSTQLQYQNAYPNPQAQYYQPMYGGMAQPQMPAAQPVTPGPGGMFTRNLIGCLSASAYRLYDTEDKIGVWFVLQDLSVRTEGIFRLKFSFVNVGKSVSDLPQSDIAEVINKGTAPILASTFSEPFQVFSAKKFPGVIESTPLSKVFANQGIKIPIRKDGVKGQGSRGRHSDEDDGLDNEY
notes: VelB, Aspergillus nidulans; GST fusion in pGEX; source: E. coli BL21 (λDE3), purified (glutathione sepharose 6B)
B2: GST-LaeA (recombinant) (natural protein, Aspergillus nidulans, UniProt C8VQG9 1-374, looked up)
chain: MFEMGPVGTRLPAMTSPAHNHYSYHSPTSSDRGRSRQNSDAMDIQSITEREPATRYAVAGGPAPWNRNGSPSMSPMYSNNSERNQFHEENGRTYHGFRRGMYFLPCDEQEQDRLDIFHKLFTVARVSESLIYAPHPTNGRFLDLGCGTGIWAIEVANKYPDAFVAGVDLAPIQPPNHPKNCEFYAPFDFEAPWAMGEDSWDLIHLQMGCGSVMGWPNLYRRIFAHLRPGAWFEQVEIDFEPRCDDRSLDGTALRHWYDCLKQATAETMRPIAHSSRDTIKDLQDAGFTEIDHQIVGLPLNPWHQDEHERKVARWYNLAVSESIENLSLAPFSRVYRWPLERIQQLAADVKSEAFNKEIHAYNILHIYQARKPLR
notes: LaeA, Aspergillus nidulans, locus AN0807; GST fusion in pGEX; source: E. coli BL21 (λDE3), purified (glutathione sepharose 6B)

Key:
LaeA = LaeA (Aspergillus nidulans, UniProt C8VQG9); settings: labelled compound; room temperature, UV on ice 30 min; GST-LaeA
[1] = target: T1, His6-VeA-S-tag (recombinant); experiment: pull-down; 10 µg purified GST tagged protein, glutathione sepharose and purified His6-VeA-S-tag, 3 hours at 4°C in PBS buffer with 1 mM DTT, pH 7.3; anti-S-tag immunoblot; settings: both partners purified

Molecule | UV crosslinking of 3H-SAM, SDS-PAGE and tritium phosphor screen (LaeA) | binding result [1]
C[S+](CC[C@H](N)C(=O)O)C[C@H]1O[C@@H](n2cnc3c(N)ncnc32)[C@H](O)[C@@H]1O (stereo partly drawn) [S-adenosyl methionine] | these results indicate that both LaeA and LlmF have the ability to bind SAM | 
B1 |  | binds
B2 |  | binds
